The target in the experiment is T1, mouse GANP protein (mouse, UniProt Q9WUU9 1-1971).
T1 construct: Endogenous 210-kD protein in lysates, cytoplasmic and nuclear fractions of WEHI-231 cells and in mouse spleen B cells; The deduced polypeptide has 1971 amino acids; It is phosphorylated at serine/threonine in the in vitro kinase reactions; also called GANP antigen; 29-15 Ag
Nature of the experiment: co-immunoprecipitation from WEHI-231 lysate, Western blot with anti-MCM3; in vitro kinase assay and V8 cleavage mapping.

T1 sequence (Q9WUU9 other isoform, or with tags, fused parts or gaps limits assumed): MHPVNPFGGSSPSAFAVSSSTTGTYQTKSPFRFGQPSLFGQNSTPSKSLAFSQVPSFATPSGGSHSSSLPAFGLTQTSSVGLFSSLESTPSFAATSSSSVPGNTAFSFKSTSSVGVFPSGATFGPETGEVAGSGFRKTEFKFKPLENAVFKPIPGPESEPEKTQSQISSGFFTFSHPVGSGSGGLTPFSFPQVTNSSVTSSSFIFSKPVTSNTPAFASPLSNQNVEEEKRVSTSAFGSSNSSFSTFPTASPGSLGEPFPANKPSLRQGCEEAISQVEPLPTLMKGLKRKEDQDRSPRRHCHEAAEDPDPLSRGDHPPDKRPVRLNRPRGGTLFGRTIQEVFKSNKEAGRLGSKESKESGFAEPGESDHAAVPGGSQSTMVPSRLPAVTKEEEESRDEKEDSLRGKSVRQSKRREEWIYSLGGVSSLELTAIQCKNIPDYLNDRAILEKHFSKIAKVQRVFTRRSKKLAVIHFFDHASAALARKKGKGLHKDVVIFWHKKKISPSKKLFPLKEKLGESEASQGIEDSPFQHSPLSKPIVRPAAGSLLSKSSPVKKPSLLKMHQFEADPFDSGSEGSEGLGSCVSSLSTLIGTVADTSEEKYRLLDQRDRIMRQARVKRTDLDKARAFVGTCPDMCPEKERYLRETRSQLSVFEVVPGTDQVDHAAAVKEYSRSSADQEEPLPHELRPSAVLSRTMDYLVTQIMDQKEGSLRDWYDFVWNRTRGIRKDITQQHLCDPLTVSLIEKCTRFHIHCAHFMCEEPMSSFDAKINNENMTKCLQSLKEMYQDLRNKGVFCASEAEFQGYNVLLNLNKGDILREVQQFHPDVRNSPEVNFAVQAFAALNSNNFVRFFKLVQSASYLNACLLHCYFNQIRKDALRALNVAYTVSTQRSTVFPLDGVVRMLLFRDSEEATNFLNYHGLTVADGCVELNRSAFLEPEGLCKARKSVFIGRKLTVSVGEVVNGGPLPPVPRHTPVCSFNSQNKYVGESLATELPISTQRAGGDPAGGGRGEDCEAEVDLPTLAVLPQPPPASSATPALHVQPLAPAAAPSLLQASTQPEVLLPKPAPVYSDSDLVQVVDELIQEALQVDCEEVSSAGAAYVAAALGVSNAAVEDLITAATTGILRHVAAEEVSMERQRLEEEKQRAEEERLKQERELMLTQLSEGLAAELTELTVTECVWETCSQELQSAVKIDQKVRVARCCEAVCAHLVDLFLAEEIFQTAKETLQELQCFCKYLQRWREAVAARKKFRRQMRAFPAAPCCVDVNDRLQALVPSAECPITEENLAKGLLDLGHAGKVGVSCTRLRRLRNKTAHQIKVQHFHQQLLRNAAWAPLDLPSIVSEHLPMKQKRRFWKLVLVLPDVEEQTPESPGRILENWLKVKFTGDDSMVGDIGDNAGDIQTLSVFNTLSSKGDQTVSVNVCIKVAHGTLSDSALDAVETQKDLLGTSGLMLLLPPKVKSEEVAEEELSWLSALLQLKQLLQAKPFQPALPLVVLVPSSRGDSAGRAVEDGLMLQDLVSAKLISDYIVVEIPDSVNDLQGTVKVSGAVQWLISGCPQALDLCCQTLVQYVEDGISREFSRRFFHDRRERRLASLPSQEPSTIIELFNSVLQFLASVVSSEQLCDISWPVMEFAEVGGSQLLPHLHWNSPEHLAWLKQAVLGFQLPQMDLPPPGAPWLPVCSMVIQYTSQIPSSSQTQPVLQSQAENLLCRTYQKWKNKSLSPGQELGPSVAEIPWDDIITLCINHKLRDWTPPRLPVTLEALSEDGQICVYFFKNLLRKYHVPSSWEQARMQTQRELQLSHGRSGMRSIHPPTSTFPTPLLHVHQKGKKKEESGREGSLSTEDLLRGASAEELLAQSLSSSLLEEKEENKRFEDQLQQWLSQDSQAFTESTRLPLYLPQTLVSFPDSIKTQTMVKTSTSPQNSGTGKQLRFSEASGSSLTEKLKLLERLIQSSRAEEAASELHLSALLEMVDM

B1: MCM3 protein (other, mouse, UniProt P25206 2-812, looked up)
chain: AGTVVLDDVELREAQRDYLDFLDDEEDQGIYQNKVRELISDNQYRLIVSVNDLRRKNEKRANRLLNNAFEELVAFQRALKDFVASIDATYAKQYEEFYIGLEGSFGSKHVSPRTLTSCFLSCVVCVEGIVTKCSLVRPKVVRSVHYCPATKKTIERRYSDLTTLVAFPSSSVYPTKDEENNPLETEYGLSVYKDHQTITIQEMPEKAPAGQLPRSVDVILDDDLVDKVKPGDRIQVVGTYRCLPGKKGCYTSGTFRTVLIACNVKQMSKDIQPAFSADDIAKIKKFSKTRSKDVFEQLARSLAPSIHGHDYVKKAILCLLLGGVERELENGSHIRGDINILLIGDPSVAKSQLLRYVLCTAPRAIPTTGRGSSGVGLTAAVTTDQETGERRLEAGAMVLADRGVVCIDEFDKMSDMDRTAIHEVMEQGRVTIAKAGIHARLNARCSVLAAANPVYGRYDQYKTPMENIGLQDSLLSRFDLLFIMLDQMDPEQDREISDHVLRMHQYRAPGEQDGDALPLGSSVDILATDDPDFTQDDQQDTRIYEKHDSLLHGTKKKKEKMVSAAFMKKYIHVAKIIKPTLTQESAAYIAEEYSRLRSQDSMSSDTARTSPVTARTLETLIRLATAHAKARMSKTVDLQDAEEAVELVQYAYFKKVLEKEKKRKKASEDESDLEDEEEKSQEDTEQKRKRRKTHAKDGESYDPYDFSEAETQMPQVHTPKTDDSQEKTDDSQETQDSQKVELSEPRLKAFKAALLEVFQEAHEQSVGMLHLTESINRNREEPFSSEEIQACLSRMQDDNQVMVSEGIVFLI
notes: also called MCM3/P1
For B1, the binding result is “binds”.

For the origin of these results see US20040229309A1 (KUMAMOTO TECHNOLOGY AND INDUSTRY FOUNDATION, published 2004).
